This data set is described as follows: yeast display, Sf9 membrane polyspecificity reagent, FACS + sequencing; frameworks hold sequencing errors. The essentials:
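Nanobodies from a synthetic yeast display library (Saccharomyces cerevisiae BJ5465), induced 36–48 hours with galactose, were stained 1 hour at 4 °C with 10% biotinylated, detergent-solubilized Sf9 membrane reagent, enriched on streptavidin microbeads, then FACS-sorted. Anti-HA (expression) and streptavidin (reagent binding) fluorescence set low and high (top ~1%) gates. Polyreactivity labels come from the gate of origin. Genes were colony-PCR amplified, MiSeq 2 × 250 sequenced and filtered by CDR length.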
As to “QVQLVESGGGLDQAGGSLRLSCAASGRTFANAMGWYRQAPGKERELVAGITSGGGRTYYADSVKGRFTMSRDNAKNTVYLQMNSLKPEDTAVYYCNRATPPGRLKSDSWGQGTQVTVSS”, the “polyreactivity (PSR sort gate)” value was “high polyreactivity”.
The entry for “QVQLVESGGGLDQAGGSLRLSCAASGRTFAVYAMGWYIQAPGKERELVASIRLSGTRTYYADSVKGRFTISRDHAKNTVYFQMNSLKPEDTAVYYCAAKGTYSRGTFNGYRYDYWGQGTQVTVSS” is “high polyreactivity”; for “QVQLVESGGGLDQAGGSLRLSCAASGRTFGRYAMGWYRKAPGTERELVAAISWSGGSTYYADSVKGRFTISRDNAKNTVYLQMNSLKPEDTAVYYCAAYEHVYEYDYWGQGTQVTVSS” it is “low polyreactivity”; for “QVQLVESGGGLDQAGGSLRLSCAASGRTFKYYAMGWYRQAPGKERELVAAITRSGSTYYADSVKGRFTISRDNAKNTVYLQMNSLKPEDTAVYYGAADVTLYYRGRRYYYWGQGTQVTVSS” it is “high polyreactivity”.
Take “QVQLVESGGGLDQAGGSLRLSCAASGRTFLVYAMGWYRQAPGKERELVAAISRSGGSTYYADSVMRRFTISRDNAKNNVYLQMNSLIPEDTAVYYCAAKKTGRYYWGQGTEVTVSS”: the “polyreactivity (PSR sort gate)” value is reported as “high polyreactivity”.
Consider “QVQLVESGGGLDQAGGSLRLSCAASGRTFRYYAMGWDRQAPGKERELVAAITGSGGSTYYADSVKGRFTISRDIAKNTVYLQMNSLKPEDTAVYYCATRWALRWRGGYWGQGTQVTVSS”, for which the “polyreactivity (PSR sort gate)” value is given as “high polyreactivity”.
The entry for “QVQLVESGGGLDQAGGSLRLSCAASGRTLYRYAMGWYRQSPGKERELVAAIRSGGRTNYADSVKGRFTISRDNAKNTVYLQLNSLKPEDTAVYYCAARTLRYPSTYDYWGQGTQVTVSS” is “high polyreactivity”; for “QVQLVESGGGLDQAGGSLRLSCAASGSIFGRNAMRWYRQAPGKERELVAAITGYTYYADSVKGRFTISRDNAKNTVYLQMNSLKPEDTAVYYINADHDVGWTYDTEYNYWGQGTQVTVSS” it is “low polyreactivity”.
Regarding “QVQLVESGGGLDQAGGSLRLSCAASGSIFGTNTMGWYRQSPGKERELVAAIRLSDSSTYYADSVKGRFTISRDNAKNTVYLQMNSLKPEDTAVYYCAVDYRAYHYYRYDYWGQGTQVTVSS”, the “polyreactivity (PSR sort gate)” value is “low polyreactivity”.
Regarding “QVQLVESGGGLDQAGGSLRLSCAASGSIFLDYAMGWYRQAPGKERELVAAISLSSSRTYYADSLKGRFTISRDNAKNTVYLQLNSLKPEDTAVYNCNKLSIWSYYFGPYGYDYWGQGTQVTVSS”, the “polyreactivity (PSR sort gate)” value is listed as “low polyreactivity”.
With “QVQLVESGGGLDQAGGSLRLSCAASGSIFRRYTMGWYRQAPGKERELVAAISRVGNTNYADSVKGRITISRDNAKNTVYFQMNSLKPEDTEVYYCAARAIGYRYTPGLNYWGQGTQVTVSS”, the “polyreactivity (PSR sort gate)” value is “high polyreactivity”.
The entry for “QVQLVESGGGLDQAGGSLRLSCAASGSIFSVYAMGWYRQARGKERELVAAITSGTSTYADSVKGRFTISRDNAKNSVYLQMNSLKPEDTAVYYCAAESGSPGYYYWGQGTQVTVSS” is “low polyreactivity”.
To “QVQLVESGGGLDQAGGSLRLSCAASGSIFVGYAMGWYRQAPGKERELVASINYSGGTTDYADSVKGRFTISRDNAKNTVYLQMHSLKPEDTAVYYCAKTAVDCSFTKGVDYDYWGQGTQVTVSS” belongs “low polyreactivity”; to “QVQLVESGGGLDQAGGSLRLSCAASGSIFVPYAMGGYRQAPGKERELVAAITSGDSTYYADSVKGRFTISRDNAKNNVYLQMNSLKPEDTAVYYCAADIRPTLSLLSLFDYEYWGQGTQVTVSS”, “low polyreactivity”; to “QVQLVESGGGLDQAGGSLRLSCAASGSISGYNAMGWYRQAPGKERELVASIRYTGARSYYADSGKGRFTISRDNAKNTVYLQMNSLKPEDTAVYYCAADSAYDVTSYGYWGQGTQVTVSS”, “low polyreactivity”.
To “QVQLVESGGGLDQAGGSLRLSCAASGSTFGVYAMGWYRQAPGKERELVAAISSSTGSTYYADSVKGRFTISRDNAKNTVYLQMNSLKPEDTAVYYCAAEYDGPYYSFYPEQRYYWGQGTQVTVSS” belongs “low polyreactivity”; to “QVQLVESGGGLDQAGGSLRLSCAASGSTFHYYAMGWYRQPHGKERELVAVISSGGSTYYADSVKGRFTISRDNAKNTVYLQMNSLKPEDTAVYYCAAEYFLLAGKGYNGGDYYVYDYWGQGTQVTVSS”, “low polyreactivity”.
With “QVQLVESGGGLDQAGGSLRLSCAASGSTFLHYAMGWYRQAPRKERELVAAISFSGVRTYYADSVKGRFTISRDNAKNTVYLQMNSLKPEDTAVFYCAADGHHADYDYWGQGTQVTVSS”, the “polyreactivity (PSR sort gate)” value was “low polyreactivity”.
The entry for “QVQLVESGGGLDQAGGSLRLSCAASGSTFPSNAMGWYRQAPGNESEFVAAITFRGGRTYYADSVKGRFTISRDNAKNTVYLQMNSLKREDTAVYYCAAERWWYTVRGYGYWGQGTQVTVSS” is “high polyreactivity”; for “QVQLVESGGGLDQAGGSLRLSCAASGSTFRYYTMGWYRQAHGKERELVAAISSRGGSTYYADSVKGRFTISRDNAKKTVYLQMNSLKPEDSAVYYCCALYPSWAQRGRDYWGQGTQVSVSS” it is “high polyreactivity”.
Regarding “QVQLVESGGGLDQAGGSLRLSCAASGSTFSQYVMGWYRQAPGKERELVAANSSGGSTYYADSVKGRFTISRDNAKNTVYLQMNSLKPEDTAVYYCAAKYDGSYVGLYWYSMNYWGQGTQVTVSS”, the “polyreactivity (PSR sort gate)” value is given as “low polyreactivity”.
To “QVQLVESGGGLDQAGGSLRLSCAASGSTFTKNVMGWYRQAPGKERELVAAISSGGRTNYADSVKGRFTISRDNAKNTVYLQMNSLKPEDTAVYFCAADVGYFKSDYWGQGTQVTVSS” belongs “low polyreactivity”; to “QVQLVESGGGLDQAGGSLRLSCAASGSTFVWNAMGWYRHAPGKERELVAAISSSGGSTYYADSVKGRFTISRDNAKNTVYLQMNSLKPEDTAVYYCAKGYYVRMDWGQGTQVTVSS”, “high polyreactivity”.
Consider “QVQLVESGGGLDQAGGSLRLSCAASGSTFVYNVMGWYRQAPGKERELVAAITSGVRTYYADSEKGRFTISRDNAKNTGYLQMNSLKPEDTAVYYCATGWRNAKYYYWGQGTQVNVSS”, for which the “polyreactivity (PSR sort gate)” value was “high polyreactivity”.
The entry for “QVQLVESGGGLDQAGGSLRLSCAASGTTFVPNDMGWYRQAPGKERELVAAITDSGGSTYYADSVWGRFTISRDNAKNTVYLQMNILKPEDTAVYYCADVQHYVTHMDYWGQGNQVTVSS” is “low polyreactivity”.
The entry for “QVQLVESGGGLDQAGGSLRLSCAASVLIFNIYARGWYRQAPGKERELVATIRYSGGSTNYADSVKGRFTISRDNAKNTVYLQMNSLKPEDTAVYYCNAGYYPSGYDYWGQGTQVTVSS” is “low polyreactivity”; for “QVQLVESGGGLDQAGGSLRLSCAAYGITFGYYAMGWYRQAPGKERELVASITTRGGSTSYADSVKGRFTISRDNAKNTVYLQMNSLKPEDTAVYYCAARWRQRKSVRYGQQGYDYWGQGTQVTVSS” it is “high polyreactivity”.
As for “QVQLVESGGGLDQAGGSLRLSCADSGSIFESYAMGWYRQAPGKERELVAAITKRGGSTYYADSVKGRFTISRDNAKNTVYLQMNSLKPEDTAVYYCNARWPGIGPIYDYWGQGTQVTVSS”, the “polyreactivity (PSR sort gate)” value was “low polyreactivity”.
In the case of “QVQLVESGGGLDQAGGSLRLSCDASGRIFGYYAMGWYRQAPGKERELVAAITWTGGGTYYADSVKGRFTISRDNAKNTVYIQMNSLKPEDTAVYYCAADPDSGQFPFDYWGQGTQVTVSS”, the “polyreactivity (PSR sort gate)” value is given as “low polyreactivity”.
As to “QVQLVESGGGLDQAGGSLRLSCPASGSTFLNNAMGRYRQAPGKERELVATITSGGITNYADSVKGRFTISRDNAKNCVYLQMNSLKPEDTAVYYCNADTWGFTYYYWGQGTQVTVSS”, the “polyreactivity (PSR sort gate)” value is “low polyreactivity”.
To “QVQLVESGGGLDQAGGSLRLSCVASGFTFRVYAMGWYRQAPGKERELVAAISRVGSTNYADSVKGRFTISRDNAKNTVYLQMNSLKPEDTAVYYCNAVLRHTWVSRGYGSWGQGTQVTVSS” belongs “high polyreactivity”; to “QVQLVESGGGLDQAGGSLRLSSAASGFTFERYPMGWDRQAPGKEREMVAAIDWRGVNTYYADSVKGRFTISRHTAKTTVYLQMNSLKPEDTAVYYCNARAYGRYYWGQGTQVTVSS”, “high polyreactivity”.
The entry for “QVQLVESGGGLDQAGGSLRLSSAASGSIFRGNAMGWYRQAPGKERELVAGINRAGSTKYADSVKGRFTISRDNAKNTVYLQMNSLIPEDTAVYYCAAVRYERGLWSDYWGQGTQVTVSS” is “high polyreactivity”; for “QVQLVESGGGLDQAGGSLRLTCAASGSIFAKYAMGWYRQAPGKERELVAAITSSGDSTNYADSVKGRFTISRDNAKNTVYVQMNSLKPEDTAVYYCAADHHYGYVYYAFWGYDYWGQGTQVTVSS” it is “low polyreactivity”.
The entry for “QVQLVESGGGLDQAGGSLRLTCAASGSTFEVYAMGWYRQAPGKERELVAVNNVSDGSTYYADSVKGRFTISRDNAKNTVYLQMNSLKPEDTAVYYCAAYLYNRPYQLTGYYDGYGYWGQGTQVTVSS” is “low polyreactivity”; for “QVQLVESGGGLDQAGGSLSLICAASASIFSYYAMGWYRQAAGKERELVATISSGGSTNYADSVKGRFTISRDNAKNTVYLQMNSLKPEDTAVYYCAATIGHNGFDYWGQGTQVTVSS” it is “low polyreactivity”; for “QVQLVESGGGLDQAGGSLSLSCAASGLIINSNTMGWYRQAPGKERELVAVINWRGGRTYYADSVKGRFTISRDNAKNTVDLQMNSLKPEDTAVYYCAAYLHGARYGYWGQGTQVTVSS” it is “high polyreactivity”.
As for “QVQLVESGGGLDQAGRSLRLSCAASGRTDVTYAMGWYRQAPGKEREFVAAISASGGTTYYADSVKGRFTISRDNSKNTVYLQMNSRKPEDTAVYYCAADIRGTVYLSSFWMEYWGQGTQVNVSS”, the “polyreactivity (PSR sort gate)” value is “low polyreactivity”.
Take “QVQLVESGGGLDQAGVSLRLSCAASGSTFRIYAMGWYRPAPGKERELVAAISRSGGSTYYADSVKGRFTISRDNAKNTVYLQMNSLKPEDTAVYYCAALSVASRWFGRGTGGYWGQGTQVTVSS”: the “polyreactivity (PSR sort gate)” value is “high polyreactivity”.
To “QVQLVESGGGLDQAGVSLRLSSAASGSTFVRNAMGCYRQAPGKEREWVAAINIGGSTYYADSVKGRFTISRDNAKNTVYLQMNSLKPEDTAVYYFAARIKYRYDWGQGTQVTVSS” belongs “low polyreactivity”.
The entry for “QVQLVESGGGLDQARGSLRLSCAASAPTFNSNAMGWYRQAPGKERDLVADINGGGSTYYADSVKGRFTISRDNAKNTVYLQMNSLKPEDTAVYYCAKCYTWYVWYPHGYWGQGTQVTVSS” is “low polyreactivity”.

The record behind these values is the nanobody polyreactivity screen of Harvey et al. (2022).
